B1: 35D6 (antibody, V domains shown)
VH: QSVEESGGRLVTPGTPLTLTCTVSGFSLSSHWMSWVRQAPGKGLEWIGIISSSGSTDYVSWAKGRFTISKTSTTVDLKITSPTTEDTATYFCARDLGYSTNIWGPGTLVTVSL
VL: AYDMTQTPASVEVTVGGTVTIKCQASQSIGSYLAWYQQKPGQRPKLLIYDASTLASGVSSRFKGSGSGTQFTLTISGVECADAATYYCQQGYSSSGVDNAFGGGTEVVVK
notes: also called recombinant anti-DXd mAb 35D6
B2: 77G10 (antibody, V domains shown)
VH: QSLEESGGRLVTPGTPLTLTCTASGFSLSSYYMSWVRQAPGKGLEYIGIISSSGSTDYASWAKGRFTISKTSTTVDLKITSPTTEDTATYFCARGWLDLWGQGTLVTVSS
VL: AAVLTQTPSPVSAAVGGTVSISCQSSKSVYNNNWLSWLQQKPGQPPKLLIHGASTLASGVPSRFKGSGSGTQFTLTISDVQCDDAATYYCAGGYSSSTDNAFGGGTEVVVK
notes: also called recombinant anti-DXd mAb 77G10
B3: 76G4 (antibody, V domains shown)
VH: QSVEESGGRLVTPGTPLTLTCTASGFSLSSYYMFWVRQAPGKGLEYIGYIGDGGYTSYATWAKGRFTISKTSSTTVDLKITSPTTEDTATYFCARDGFTSGSIWGPGTLVTVSS
VL: B2 VL with A13T, S20T, S28N, L38F, H51Y, A53T, T98S, A101G, G104A
notes: also called recombinant anti-DXd mAb 76G4
B4: 29D2 (antibody, V domains shown)
VH: QSVEESGGRLVTPGTPLTLTCTASGFSLSSYAMNWVRQAPGKGLEYIGIIYDSGTTYYASWAKGRFTISKTSTTVDLKITSPTTEDTATYFCARAALDIWGPGTLVTVSS
VL: B2 VL with S25A, L38V, K41T, H51Y, S95G, T98S, K111E
notes: also called recombinant anti-DXd mAb 29D2
B5: 28C8 (antibody, V domains shown)
VH: B4 VH with A23V, T55S, S60N, A95G, A96Y
VL: B2 VL with N33K, H51Y, Q72E, S96I, T98S
notes: also called recombinant anti-DXd mAb 28C8

Numbering of substitutions follows the chain as printed.

The target of the experiment is T1, DXd-conjugated antigen.
T1 construct: also called DXd conjugated antigens
The experiment can be described thus: competitive ELISA: coated DXd-conjugated antigen, antibody titrated with 1 ug/ml free biotin-DXd (small molecule) as competitor, streptavidin-HRP detection.
In turn, B1 registered an IC50 of 5.24 ng/mL.

As for B2, the IC50 was found to be 0.953 ng/mL. With B3 the figure was 0.753 ng/mL; with B4, 1.26 ng/mL; with B5, 1.58 ng/mL.

Source of the values: patent US20250026859A1 (BEIGENE, published 2025).
